Where a chain is given by its changes, count along the chain named.

The record followed here is patent publication US20140193915, “COMPOSITIONS AND METHODS FOR CUSTOM SITE-SPECIFIC DNA RECOMBINASES” (Monsanto Technology, LLC, published 2014).

What all share (assay): cell_activity; E. coli
Data set [1] has as its target T1, pN-TALER IV-1-EE2 (GinL7C7-EE2-TALE13) (synthetic).
T1 chain: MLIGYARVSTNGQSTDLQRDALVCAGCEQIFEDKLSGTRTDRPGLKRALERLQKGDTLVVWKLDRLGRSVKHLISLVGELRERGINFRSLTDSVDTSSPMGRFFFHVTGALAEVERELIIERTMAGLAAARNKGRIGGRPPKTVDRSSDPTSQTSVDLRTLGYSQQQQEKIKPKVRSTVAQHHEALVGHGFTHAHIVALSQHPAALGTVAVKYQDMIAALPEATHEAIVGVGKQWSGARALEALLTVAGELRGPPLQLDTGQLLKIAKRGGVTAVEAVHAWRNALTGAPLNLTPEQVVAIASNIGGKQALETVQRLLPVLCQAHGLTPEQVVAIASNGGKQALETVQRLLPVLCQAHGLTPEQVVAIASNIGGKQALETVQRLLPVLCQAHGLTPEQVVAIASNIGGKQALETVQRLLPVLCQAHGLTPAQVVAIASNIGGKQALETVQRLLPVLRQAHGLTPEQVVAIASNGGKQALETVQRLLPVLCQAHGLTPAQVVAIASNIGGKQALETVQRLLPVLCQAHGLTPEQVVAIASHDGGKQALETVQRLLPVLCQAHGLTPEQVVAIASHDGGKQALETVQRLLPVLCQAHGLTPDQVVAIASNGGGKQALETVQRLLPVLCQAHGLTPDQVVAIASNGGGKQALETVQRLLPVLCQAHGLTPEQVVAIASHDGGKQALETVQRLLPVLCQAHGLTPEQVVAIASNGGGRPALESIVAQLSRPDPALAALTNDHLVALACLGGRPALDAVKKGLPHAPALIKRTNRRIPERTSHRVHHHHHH
The following applies: tags: 6-His. Here is the method:
(§1) To test for recombination, E. coli DH5alpha cells were co-transformed with different combinations of TALER expression construct and TALER reporter construct pairs (Tables 6 and 7). The N-TALER expression and reporter constructs were in an approximate 1:1 mass ratio during the transformation. The co-transformed bacteria were plated on media with chloramphenicol, kanamycin, and X-gal then incubated at 37° C. for 18 to 36 hours. Control samples consisted of transformations using the reporter construct alone. Control transformants were similarly plated. The bacterial transformation protocol was either heat shock or electroporation per standard molecular biology techniques.
Two additional N-TALERs, based on N-TALER IV-1, were constructed wherein the GinH106Y recombinase catalytic domain was replaced with either the GinL7C7-EE2 catalytic domain or the GinL7C7-EE3 permissive recombinase catalytic domain. These N-TALERs were labeled pN-TALER IV-1-EE2 (SEQ ID NO:41) and pN-TALER IV-1-EE3 (SEQ ID NO:45), respectively. pN-TALER IV-1-EE2 was tested in combination with seventeen N-TALER reporter constructs and pN-TALER IV-1-EE3 was tested with three reporter constructs (Table 10).

A further data set addresses T2, pN-TALER N3.2 (synthetic).
T2 chain: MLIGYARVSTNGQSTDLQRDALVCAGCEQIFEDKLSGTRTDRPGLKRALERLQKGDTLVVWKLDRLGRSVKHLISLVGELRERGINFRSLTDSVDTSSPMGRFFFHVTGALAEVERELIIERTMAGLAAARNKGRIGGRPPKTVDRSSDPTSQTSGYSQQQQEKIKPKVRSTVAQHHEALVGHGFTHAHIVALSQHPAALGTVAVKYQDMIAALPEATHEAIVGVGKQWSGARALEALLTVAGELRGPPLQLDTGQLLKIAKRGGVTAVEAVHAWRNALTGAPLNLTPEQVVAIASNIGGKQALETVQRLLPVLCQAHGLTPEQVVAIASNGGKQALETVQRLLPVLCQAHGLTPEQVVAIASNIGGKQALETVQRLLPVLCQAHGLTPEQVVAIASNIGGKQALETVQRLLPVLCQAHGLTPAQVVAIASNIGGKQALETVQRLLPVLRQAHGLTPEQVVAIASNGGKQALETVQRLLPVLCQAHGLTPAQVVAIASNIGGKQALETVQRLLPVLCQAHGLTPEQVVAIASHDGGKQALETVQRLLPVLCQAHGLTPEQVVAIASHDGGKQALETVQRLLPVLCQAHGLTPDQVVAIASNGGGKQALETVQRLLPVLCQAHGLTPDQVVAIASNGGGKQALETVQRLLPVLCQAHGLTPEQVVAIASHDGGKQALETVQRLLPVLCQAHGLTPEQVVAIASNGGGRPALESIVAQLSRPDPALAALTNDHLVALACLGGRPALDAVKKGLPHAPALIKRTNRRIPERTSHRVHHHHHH
Here is the method: The co-transformed bacteria were plated on media with chloramphenicol, kanamycin, and X-gal then incubated at 37° C. for 18 to 36 hours. Control samples consisted of transformations using the reporter construct alone. Control transformants were similarly plated. The bacterial transformation protocol was either heat shock or electroporation per standard molecular biology techniques.
For each of these N-TALER chimera expression constructs, from one to three independent clones were selected for plasmid purification. These N-TALER chimera expression constructs were co-transformed with five of the N-TALER reporter constructs, as indicated in Table 15. […] In contrast to the result for pN-TALER N4.2.2, the chimera sN-TALER N4.2.2, with the same truncation point but a specific recombinase catalytic domain, reporters with 20, 24, or 40 bp of TALER central sequence length were efficiently recombined (score of 1) while reporters with 30 or 50 bp of TALER central sequence length were not recombined (score of 5). For the chimera sN-TALER N4.2, reporters with 20, 24, or 40 bp of TALER central sequence length were efficiently recombined (score of 1); the reporter with 30 bp of TALER central sequence length was poorly recombined (score of 3); and the reporter with 50 bp of TALER central sequence length was not recombined (score of 5). For the chimera pN-TALER N4.2, the recombination efficiency on the reporters tested varied from intermediate (scores of 3 and 4) to none (score of 5). […] In contrast to the result for sN-TALER N3.2, the chimera pN-TALER N3.2, with the same truncation point but a permissive recombinase catalytic domain, recombination efficiency on the reporters tested varied from efficient (scores of 1.5, 2, and 3) to none (score of 5). For both chimeras sN-TALER V.2 and pN-TALER V.2, there was efficient recombination (scores of 1, 1.5, and 2) of the 5 N-TALER reporter constructs tested.

Another data set addresses T3, sN-TALER IV-12 (synthetic).
T3 chain: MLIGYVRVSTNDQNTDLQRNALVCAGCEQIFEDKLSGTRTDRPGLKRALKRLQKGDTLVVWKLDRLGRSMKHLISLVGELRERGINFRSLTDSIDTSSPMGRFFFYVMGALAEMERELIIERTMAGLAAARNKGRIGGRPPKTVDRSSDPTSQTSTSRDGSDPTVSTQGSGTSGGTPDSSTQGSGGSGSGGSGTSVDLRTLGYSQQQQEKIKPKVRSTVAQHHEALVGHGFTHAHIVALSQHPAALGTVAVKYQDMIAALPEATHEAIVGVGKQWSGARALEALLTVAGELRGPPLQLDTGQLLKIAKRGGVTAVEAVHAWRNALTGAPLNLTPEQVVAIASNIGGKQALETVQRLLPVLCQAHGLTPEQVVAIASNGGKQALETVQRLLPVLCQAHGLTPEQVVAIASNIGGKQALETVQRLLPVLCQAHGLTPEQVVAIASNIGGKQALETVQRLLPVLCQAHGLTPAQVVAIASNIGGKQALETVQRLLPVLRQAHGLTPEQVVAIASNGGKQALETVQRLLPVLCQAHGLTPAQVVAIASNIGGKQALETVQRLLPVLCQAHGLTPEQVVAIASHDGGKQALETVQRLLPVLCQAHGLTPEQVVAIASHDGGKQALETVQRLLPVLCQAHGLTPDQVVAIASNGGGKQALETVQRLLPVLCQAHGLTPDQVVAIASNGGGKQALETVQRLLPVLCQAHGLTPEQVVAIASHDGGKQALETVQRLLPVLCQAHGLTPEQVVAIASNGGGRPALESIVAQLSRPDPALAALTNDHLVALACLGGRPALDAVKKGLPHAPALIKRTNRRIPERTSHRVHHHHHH
As to the method:
as §1
(§2) The N-TALER expression constructs representing the N-TALER chimeras with varying linker lengths were co-transformed with N-TALER reporter constructs with TALER central sequence lengths of 18, 20, 24, 30, 40, and 50 bp (Table 13). […] Recombination did occur, but was less efficient with the pN-TALER IV-14 (linker length of 71 amino acids) with each of the N-TALER reporters tested.

In a further data set the target is T4, pN-TALER IV-12 (synthetic).
T4 chain: T3 chain with V6A, D12G, N14S, N20D, K50E, M70V, I94V, Y106H, M108T, M114V
As to the method:
as §1, §2

B1: Gin20TALE+5 (dsDNA)
DNA 1: AGAAGGTATTTATATATTATCCAAAACCATGGTTTACAGGACTATATAAATACCTTCT
DNA 2: AGAAGGTATTTATATAGTCCTGTAAACCATGGTTTTGGATAATATATAAATACCTTCT
With B1, the activity in data set [1] was 1 score; in the data set with pN-TALER N3.2 it was 1.5 score.

B2: Gin20TALE+15 (dsDNA)
DNA 1: AGAAGGTATTTATATAGGCACACATGTTATCCAAAACCATGGTTTACAGGACGTTCACACGGTATATAAATACCTTCT
DNA 2: AGAAGGTATTTATATACCGTGTGAACGTCCTGTAAACCATGGTTTTGGATAACATGTGTGCCTATATAAATACCTTCT
As to B2, the activity in the data set with sN-TALER IV-12 and with pN-TALER IV-12 was 1 score throughout.
